According to the Human Domainome abundance scans (Beltran et al. 2025):
± gives the uncertainty stated by the source.

B1: GA-binding protein alpha chain, residues 172 to 250; numbered along this chain, Q06546 (parent)
chain: GYRKEQERLGIPYDPIQWSTDQVLHWVVWVMKEFSMTDIDLTTLNISGRELCSLNQEDFFQRVPRGEILWSHLELLRKY

Variants of: B1
Assay: abundance fitness (aPCA) (normalised: wild type 0, dead -1); higher = more abundant; growth selection in yeast, the domain comes from the species named
Settings: Homo sapiens

Variant	abundance fitness
L75G	-0.132 ± 0.047
L75M	-0.042 ± 0.071
L75K	-0.122 ± 0.076
R49V	-0.082 ± 0.041
R49L	-0.072 ± 0.034
R49P	0.001 ± 0.052
R49I	-0.203 ± 0.12
L9D	-0.368 ± 0.095
L9R	-0.047 ± 0.037
L9Q	0.016 ± 0.055
G10V	-0.383 ± 0.037
G10W	-0.464 ± 0.045
G10D	-0.196 ± 0.087
G10H	-0.07 ± 0.085
Y13H	-0.114 ± 0.088
Y13S	-0.029 ± 0.039
Y13Q	-0.048 ± 0.06
D40Q	-0.268 ± 0.082
D40I	-0.533 ± 0.1
D40V	-0.44 ± 0.039
D40H	-0.223 ± 0.096
D40E	-0.112 ± 0.05
M31L	-0.11 ± 0.037
M31G	-0.089 ± 0.037

Variant	abundance fitness
M31Q	0.059 ± 0.049
M31P	-1.01 ± 0.16
M31K	-0.089 ± 0.079
E33A	-0.139 ± 0.05
E33N	-0.202 ± 0.25
E33M	-0.337 ± 0.069
E33K	-0.008 ± 0.065
E33Y	-0.257 ± 0.078
R62W	-0.314 ± 0.039
R62S	-0.156 ± 0.028
R62F	-0.192 ± 0.068
R62T	-0.194 ± 0.056
R62A	-0.132 ± 0.16
R62E	-0.197 ± 0.083
R62V	-0.039 ± 0.08
R65D	0.084 ± 0.056
W26Q	-0.875 ± 0.13
W26E	-1 ± 0.15
W26S	-1.13 ± 0.14
W26M	-0.976 ± 0.14
W26I	-0.804 ± 0.19
H72F	-0.888 ± 0.34
H72Q	0.019 ± 0.061
H72W	-1.02 ± 0.16

Variant	abundance fitness
H72Y	-0.46 ± 0.15
L69K	-1 ± 0.33
L69G	-1.04 ± 0.089
L69M	-0.124 ± 0.051
L69C	-0.57 ± 0.069
L69A	-0.311 ± 0.032
F34E	-0.056 ± 0.057
F34M	-0.175 ± 0.056
F34K	0.015 ± 0.072
L73P	-0.658 ± 0.063
L73W	-0.173 ± 0.055
L73T	-0.97 ± 0.15
L73G	-0.937 ± 0.077
L73E	-0.758 ± 0.19
L73Y	-0.962 ± 0.47
L73N	-0.979 ± 0.23
D14F	-1.01 ± 0.18
D14C	-0.393 ± 0.048
D14V	-0.856 ± 0.071
D14W	-0.651 ± 0.055
K32F	-0.41 ± 0.085
K32S	-0.079 ± 0.046
K32Y	-0.172 ± 0.082
K32M	-0.261 ± 0.059

Variant	abundance fitness
K78M	-0.071 ± 0.072
K78V	-0.078 ± 0.03
K78Y	-0.208 ± 0.085
Q6S	-0.221 ± 0.042
Q6E	-0.26 ± 0.053
Q6V	-0.069 ± 0.036
Q6D	-0.678 ± 0.31
Q6A	-0.076 ± 0.041
Q6T	-0.172 ± 0.054
Q6F	-0.184 ± 0.069
V63G	-0.218 ± 0.027
V63L	-0.073 ± 0.029
V63W	-0.042 ± 0.041
V63K	-0.864 ± 0.22
N55L	-0.252 ± 0.03
N55P	-0.039 ± 0.048
N55W	-0.782 ± 0.13
N55C	-0.124 ± 0.051
I46K	-0.835 ± 0.24
I46E	-0.939 ± 0.22
I46M	0.069 ± 0.06
W18Q	-0.944 ± 0.13
W18G	-0.779 ± 0.053
W18N	-0.134 ± 0.18

Variant	abundance fitness
W18I	-0.915 ± 0.24
E5M	-0.281 ± 0.077
E5N	-0.897 ± 0.24
E5W	-0.442 ± 0.094
E5R	-0.913 ± 0.078
E5F	-0.419 ± 0.088
S35E	-0.035 ± 0.052
S35I	-0.781 ± 0.21
S35Q	0.014 ± 0.051
S35L	-0.204 ± 0.031
L41H	-0.063 ± 0.068
L41I	0.006 ± 0.077
L41G	-0.134 ± 0.033
L41T	-0.061 ± 0.057
L41C	-0.056 ± 0.055
T37I	-0.256 ± 0.071
T37F	-0.019 ± 0.05
T37M	-0.028 ± 0.053
P12D	-0.34 ± 0.1
P12I	-0.912 ± 0.33
P12N	-0.542 ± 0.2
P12F	-0.949 ± 0.22
P12V	-0.724 ± 0.035
L24A	-0.083 ± 0.044

Variant	abundance fitness
L24S	-0.104 ± 0.042
L24I	-0.091 ± 0.064
L24D	-0.171 ± 0.11
L24M	-0.011 ± 0.038
L24C	0.003 ± 0.046
I68N	-0.194 ± 0.096
I68M	-0.091 ± 0.058
I68A	0.017 ± 0.046
I68S	-0.076 ± 0.041
V27T	-0.245 ± 0.042
V27N	-0.818 ± 0.42
V27G	-0.037 ± 0.028
E74Y	-0.287 ± 0.1
E74C	-0.138 ± 0.1
E74I	-0.302 ± 0.071
E74S	-0.051 ± 0.04
E74V	-0.213 ± 0.041
E74F	-0.322 ± 0.1
D38G	-0.031 ± 0.035
D38T	-0.08 ± 0.06
D38I	-0.626 ± 0.14
D38V	-0.364 ± 0.046
D38H	-0.055 ± 0.07
S53M	-0.121 ± 0.055

Variant	abundance fitness
S53C	-0.061 ± 0.061
S53H	-0.171 ± 0.077
S53A	-0.063 ± 0.055
Q22W	-1 ± 0.18
Q22K	-0.787 ± 0.2
Q22N	-0.039 ± 0.098
Q22C	-0.543 ± 0.12
Y79I	-0.09 ± 0.11
Y79A	-0.021 ± 0.084
Y79M	-0.299 ± 0.15
Y79D	0.06 ± 0.15
Y79F	0.062 ± 0.095
Y79C	-0.061 ± 0.063
Y79S	0.038 ± 0.04
Y79R	-0.054 ± 0.049
Y79K	0.146 ± 0.13
R77K	0.016 ± 0.081
R77Q	-0.299 ± 0.091
R77N	-0.119 ± 0.13
V30I	-0.099 ± 0.086
V30M	-0.042 ± 0.058
V30G	-0.051 ± 0.038
V30S	-0.076 ± 0.041
V23R	-0.724 ± 0.066

Variant	abundance fitness
V23S	-0.839 ± 0.067
W29E	-0.701 ± 0.087
W29S	-0.439 ± 0.042
W29T	-0.452 ± 0.062
W29A	-0.632 ± 0.054
W29V	-0.939 ± 0.08
W29L	-0.815 ± 0.065
W29H	-0.404 ± 0.058
Q17L	-0.01 ± 0.034
Q17F	-0.28 ± 0.1
Q17K	-0.143 ± 0.059
Q17D	0.017 ± 0.16
Q17C	-0.127 ± 0.06
H25R	-0.304 ± 0.035
H25W	-0.393 ± 0.048
H25C	-0.266 ± 0.054
H25L	-0.167 ± 0.041
M36G	-0.182 ± 0.032
M36Q	-0.08 ± 0.054
M36I	-0.05 ± 0.068
M36L	0.043 ± 0.038
M36S	-0.102 ± 0.045
R8G	-0.363 ± 0.036
R8A	-0.056 ± 0.035

Variant	abundance fitness
W70Q	-0.875 ± 0.2
W70N	-0.766 ± 0.22
W70H	-0.494 ± 0.13
W70A	-0.748 ± 0.071
D58M	-0.004 ± 0.083
D58E	-0.095 ± 0.044
D58C	-0.177 ± 0.063
D58H	-0.149 ± 0.1
D58T	-0.053 ± 0.09
D58W	-0.19 ± 0.046
D58A	-0.041 ± 0.043
L51I	-0.374 ± 0.072
L51V	-0.652 ± 0.047
F60A	-0.03 ± 0.046
F60C	-0.088 ± 0.11
F60I	0.039 ± 0.1
F60M	0.121 ± 0.1
I16L	-0.012 ± 0.036
I16M	0.032 ± 0.26
I16P	-0.458 ± 0.059
I39F	-0.011 ± 0.098
I39C	-0.042 ± 0.062
I39P	-0.17 ± 0.045
I39M	-0.021 ± 0.064

Variant	abundance fitness
I39N	-0.07 ± 0.091
Q61K	-0.016 ± 0.14
Q61G	-0.029 ± 0.033
K4D	-0.104 ± 0.063
K4E	-0.072 ± 0.071
K4Y	-0.1 ± 0.073
D21S	-0.029 ± 0.036
D21F	-0.391 ± 0.094
D21K	-0.029 ± 0.084
D21H	-0.049 ± 0.054
D21P	-0.089 ± 0.03
D21Y	-0.27 ± 0.084
D21N	-0.044 ± 0.073
D21M	-0.134 ± 0.09
T20E	0.039 ± 0.053
T20M	-0.15 ± 0.057
T20P	-0.013 ± 0.053
T20C	-0.118 ± 0.069
T20L	-0.318 ± 0.043
V28D	0.017 ± 0.13
V28I	-0.017 ± 0.06
V28H	-0.013 ± 0.093
V28N	-0.1 ± 0.098
R3D	-0.499 ± 0.26

Variant	abundance fitness
R3G	-0.176 ± 0.031
R3N	-0.373 ± 0.31
R3A	-0.268 ± 0.045
R3Y	-0.19 ± 0.077
P15T	-1.07 ± 0.23
P15W	-1.09 ± 0.15
P15C	-0.742 ± 0.08
P15Y	-0.901 ± 0.28
P15N	-0.606 ± 0.11
P15I	-0.356 ± 0.066
S47F	-0.866 ± 0.16
S47Y	-0.637 ± 0.15
S47T	0.03 ± 0.042
S47D	-0.07 ± 0.099
S47H	-0.266 ± 0.078
S47E	-0.061 ± 0.058
S47I	-0.279 ± 0.25
L76Q	-0.416 ± 0.094
L76V	-0.182 ± 0.038
F59V	-0.803 ± 0.072
F59T	-1.02 ± 0.27
F59I	-0.507 ± 0.12
F59G	-0.888 ± 0.063
Q56Y	0.025 ± 0.099

Variant	abundance fitness
Q56L	-0.291 ± 0.043
S71K	-0.102 ± 0.084
S71Y	-0.027 ± 0.18
S71Q	0.01 ± 0.053
S71R	-0.034 ± 0.036
L44R	-0.989 ± 0.095
L44D	-0.945 ± 0.33
L44K	-0.862 ± 0.16
L44A	-0.715 ± 0.066
E7K	-0.494 ± 0.28
E7W	-0.288 ± 0.05
E7Q	-0.072 ± 0.054
E7S	-0.163 ± 0.038
E7I	-0.161 ± 0.12
G48R	-0.944 ± 0.098
G48K	-0.951 ± 0.39
G48F	-0.796 ± 0.16
G48V	-0.884 ± 0.084
S19C	-0.487 ± 0.065
S19R	-0.14 ± 0.029
L54Q	-0.446 ± 0.089
L54F	-0.051 ± 0.07
L54C	-0.374 ± 0.084
T42R	-0.014 ± 0.031

Variant	abundance fitness
T42F	-0.215 ± 0.058
T42D	-0.011 ± 0.069
T43Q	-0.016 ± 0.055
T43V	-0.065 ± 0.041
T43M	-0.043 ± 0.075
T43D	0.034 ± 0.081
T43A	0 ± 0.041
T43K	0.102 ± 0.072
T43Y	-0.005 ± 0.1
T43N	-0.037 ± 0.053
E50R	-0.249 ± 0.034
E50D	-0.041 ± 0.06
E50S	-0.291 ± 0.039
E50L	-0.201 ± 0.031
C52Y	-0.431 ± 0.14
C52G	-0.575 ± 0.041
C52I	0.076 ± 0.095
C52K	-0.887 ± 0.17
P64N	-0.177 ± 0.16
P64W	-0.67 ± 0.062
E57R	-0.082 ± 0.037
E57V	-0.081 ± 0.04
I11Q	-1.01 ± 0.33
I11E	-0.924 ± 0.13

Variant	abundance fitness
I11Y	-0.238 ± 0.061
E67L	-0.249 ± 0.049
E67R	-0.101 ± 0.032
E67V	-0.118 ± 0.036
E67M	-0.147 ± 0.055
E67Q	-0.121 ± 0.08
E67F	-0.249 ± 0.088
E67D	-0.133 ± 0.08
E67K	0.064 ± 0.12
N45A	0.003 ± 0.044
N45E	-0.039 ± 0.047
N45T	-0.01 ± 0.046
N45D	-0.148 ± 0.089
N45H	0.015 ± 0.068
N45R	-0.038 ± 0.032
N45M	-0.054 ± 0.078
G66R	-0.562 ± 0.04
G66L	-0.795 ± 0.077
G66C	-0.298 ± 0.04
G66H	-0.608 ± 0.11
G66K	-0.728 ± 0.12
G66Q	-0.773 ± 0.17
